How the values were obtained:
HeLa Kyoto [1] = assay: solubility in G1/S (NP-40 vs SDS abundance) (log2 ratio); higher = more soluble; settings: cell cycle stage: G1/S
HeLa Kyoto [2] = assay: melting temperature (median over replicates), in situ; higher = more thermally stable
HeLa Kyoto [3] = assay: solubility change mitosis vs G1/S (difference of NP-40 vs SDS log2 ratios) (log2 ratio difference); higher = more soluble in mitosis
HeLa Kyoto [4] = assay: thermal stability score vs G1/S (z-score of summed log2 fold changes over temperatures); higher = more thermally stable than in G1/S
[5] = cell cycle stage: early G1 (4.5 h after nocodazole release)
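Throughout, for melting temperature (median over replicates), in situ: HeLa Kyoto cells synchronized by double thymidine or nocodazole block, proteins quantified by TMT10plex mass spectrometry, three independent biological replicates.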
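Throughout, for solubility change mitosis vs G1/S (difference of NP-40 vs SDS log2 ratios): synchronized HeLa Kyoto cells (double thymidine block for G1/S, nocodazole release for mitosis), protein amounts in NP-40 versus SDS lysates quantified by mass spectrometry, three biological replicates.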
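Throughout, for solubility in G1/S (NP-40 vs SDS abundance): HeLa Kyoto cells arrested at G1/S by double thymidine block, proteins quantified by TMT10plex mass spectrometry in mild NP-40 versus SDS extracts, three biological replicates.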
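Throughout, for thermal stability score vs G1/S (z-score of summed log2 fold changes over temperatures): synchronized HeLa Kyoto cells, proteins quantified by TMT10plex mass spectrometry, three biological replicates, mitosis taken 0.5 h after nocodazole release, G1/S directly after double thymidine block.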

Row | Sequence | solubility in G1/S (log2) (HeLa Kyoto [1]) | melting temperature (HeLa Kyoto [2]; cell cycle stage: G1/S) [°C] | melting temperature (HeLa Kyoto [2]; cell cycle stage: mitosis) [°C] | solubility change mitosis (log2) (HeLa Kyoto [3]) | thermal stability score (HeLa Kyoto [4]; [5]) | thermal stability score (HeLa Kyoto [4]; cell cycle stage: mitosis)
1 | MSLKLQASNVTNKNDPKSINSRVFIGNLNTALVKKSDVETIFSKYGRVAGCSVHKGYAFVQYSNERHARAAVLGENGRVLAGQTLDINMAGEPKPDRPKGLKRAASAIYSGYIFDYDYYRDDFYDRLFDYRGRLSPVPVPRAVPVKRPRVTVPLVRRVKTNVPVKLFARSTAVTTSSAKIKLKSSELQAIKTELTQIKSNIDALLSRLEQIAAEQKANPDGKKKGDGGGAGGGGGGGGSGGGGSGGGGGGGSSRPPAPQENTTSEAGLPQGEARTRDDGDEEGLLTHSEEELEHSQDTDADDGALQ [RALY] | 0.116 | 47.1 | 49.4 | 0.275 | 2.9 | 8.45
2 | MSLKPRVVDFDETWNKLLTTIKAVVMLEYVERATWNDRFSDIYALCVAYPEPLGERLYTETKIFLENHVRHLHKRVLESEEQVLVMYHRYWEEYSKGADYMDCLYRYLNTQFIKKNKLTEADLQYGYGGVDMNEPLMEIGELALDMWRKLMVEPLQAILIRMLLREIKNDRGGEDPNQKVIHGVINSFVHVEQYKKKFPLKFYQEIFESPFLTETGEYYKQEASNLLQESNCSQYMEKVLGRLKDEEIRCRKYLHPSSYTKVIHECQQRMVADHLQFLHAECHNIIRQEKKNDMANMYVLLRAVSTGLPHMIQELQNHIHDEGLRATSNLTQENMPTLFVESVLEVHGKFVQLINTVLNGDQHFMSALDKALTSVVNYREPKSVCKAPELLAKYCDNLLKKSAKGMTENEVEDRLTSFITVFKYIDDKDVFQKFYARMLAKRLIHGLSMSMDSEEAMINKLKQACGYEFTSKLHRMYTDMSVSADLNNKFNNFIKNQDTVIDLGISFQIYVLQAGAWPLTQAPSSTFAIPQELEKSVQMFELFYSQHFSGRKLTWLHYLCTGEVKMNYLGKPYVAMVTTYQMAVLLAFNNSETVSYKELQDSTQMNEKELTKTIKSLLDVKMINHDSEKEDIDAESSFSLNMNFSSKRTKFKITTSMQKDTPQEMEQTRSAVDEDRKMYLQAAIVRIMKARKVLRHNALIQEVISQSRARFNPSISMIKKCIEVLIDKQYIERSQASADEYSYVA [CUL2] | -0.219 | 54.1 | 53.6 | -0.148 | -0.0958 | -0.6
3 | MSLLRSLRVFLVARTGSYPAGSLLRQSPQPRHTFYAGPRLSASASSKELLMKLRRKTGYSFVNCKKALETCGGDLKQAEIWLHKEAQKEGWSKAAKLQGRKTKEGLIGLLQEGNTTVLVEVNCETDFVSRNLKFQLLVQQVALGTMMHCQTLKDQPSAYSKGFLNSSELSGLPAGPDREGSLKDQLALAIGKLGENMILKRAAWVKVPSGFYVGSYVHGAMQSPSLHKLVLGKYGALVICETSEQKTNLEDVGRRLGQHVVGMAPLSVGSLDDEPGGEAETKMLSQPYLLDPSITLGQYVQPQGVSVVDFVRFECGEGEEAAETE [TSFM] | 0.283 | 47.6 | 48.9 | -0.0285 | -0.0634 | 3.2
4 | MSLNPPIFLKRSEENSSKFVETKQSQTTSIASEDPLQNLCLASQEVLQKAQQSGRSKCLKCGGSRMFYCYTCYVPVENVPIEQIPLVKLPLKIDIIKHPNETDGKSTAIHAKLLAPEFVNIYTYPCIPEYEEKDHEVALIFPGPQSISIKDISFHLQKRIQNNVRGKNDDPDKPSFKRKRTEEQEFCDLNDSKCKGTTLKKIIFIDSTWNQTNKIFTDERLQGLLQVELKTRKTCFWRHQKGKPDTFLSTIEAIYYFLVDYHTDILKEKYRGQYDNLLFFYSFMYQLIKNAKCSGDKETGKLTH [DTWD1] | 0.19 | 50.9 | 50.6 | -0.213 | 1.51 | 1.96
5 | MSLRIDVDTNFPECVVDAGKVTLGTQQRQEMDPRLREKQNEIILRAVCALLNSGGGIIKAEIENKGYNYERHGVGLDVPPIFRSHLDKMQKENHFLIFVKSWNTEAGVPLATLCSNLYHRERTSTDVMDSQEALAFLKCRTQTPTNINVSNSLGPQAAQGSVQYEGNINVSAAALFDRKRLQYLEKLNLPESTHVEFVMFSTDVSHCVKDRLPKCVSAFANTEGGYVFFGVHDETCQVIGCEKEKIDLTSLRASIDGCIKKLPVHHFCTQRPEIKYVLNFLEVHDKGALRGYVCAIKVEKFCCAVFAKVPSSWQVKDNRVRQLPTREWTAWMMEADPDLSRCPEMVLQLSLSSATPRSKPVCIHKNSECLKEQQKRYFPVFSDRVVYTPESLYKELFSQHKGLRDLINTEMRPFSQGILIFSQSWAVDLGLQEKQGVICDALLISQNNTPILYTIFSKWDAGCKGYSMIVAYSLKQKLVNKGGYTGRLCITPLVCVLNSDRKAQSVYSSYLQIYPESYNFMTPQHMEALLQSLVIVLLGFKSFLSEELGSEVLNLLTNKQYELLSKNLRKTRELFVHGLPGSGKTILALRIMEKIRNVFHCEPANILYICENQPLKKLVSFSKKNICQPVTRKTFMKNNFEHIQHIIIDDAQNFRTEDGDWYGKAKFITQTARDGPGVLWIFLDYFQTYHLSCSGLPPPSDQYPREEINRVVRNAGPIANYLQQVMQEARQNPPPNLPPGSLVMLYEPKWAQGVPGNLEIIEDLNLEEILIYVANKCRFLLRNGYSPKDIAVLFTKASEVEKYKDRLLTAMRKRKLSQLHEESDLLLQIGDASDVLTDHIVLDSVCRFSGLERNIVFGINPGVAPPAGAYNLLLCLASRAKRHLYILKASV [SLFN5] | -0.0689 | 48.5 | 49.4 | -0.0585 | 1.54 | 2.13
6 | MSLRQRLAQLVGRLQDPQKVARFQRLCGVEAPPRRSADRREDEKAEAPLAGDPRLRGRQPGAPGGPQPPGSDRNQCPAKPDGGGAPNGVRNGLAAELGPASPRRAGALRRNSLTGEEGQLARVSNWPLYCLFCFGTELGNELFYILFFPFWIWNLDPLVGRRLVVIWVLVMYLGQCTKDIIRWPRPASPPVVKLEVFYNSEYSMPSTHAMSGTAIPISMVLLTYGRWQYPLIYGLILIPCWCSLVCLSRIYMGMHSILDIIAGFLYTILILAVFYPFVDLIDNFNQTHKYAPFIIIGLHLALGIFSFTLDTWSTSRGDTAEILGSGAGIACGSHVTYNMGLVLDPSLDTLPLAGPPITVTLFGKAILRILIGMVFVLIIRDVMKKITIPLACKIFNIPCDDIRKARQHMEVELPYRYITYGMVGFSITFFVPYIFFFIGIS [SGPP1] | -0.0125 | 53.9 | 53.4 | -0.122 | 1.45 | 1.19
7 | MSLSDWHLAVKLADQPLTPKSILRLPETELGEYSLGGYSISFLKQLIAGKLQESVPDPELIDLIYCGRKLKDDQTLDFYGIQPGSTVHVLRKSWPEPDQKPEPVDKVAAMREFRVLHTALHSSSSYREAVFKMLSNKESLDQIIVATPGLSSDPIALGVLQDKDLFSVFADPNMLDTLVPAHPALVNAIVLVLHSVAGSAPMPGTDSSSRSMPSSSYRDMPGGFLFEGLSDDEDDFHPNTRSTPSSSTPSSRPASLGYSGAAGPRPITQSELATALALASTPESSSHTPTPGTQGHSSGTSPMSSGVQSGTPITNDLFSQALQHALQASGQPSLQSQWQPQLQQLRDMGIQDDELSLRALQATGGDIQAALELIFAGGAP [UBL7] | 0.396 | 50.8 | 50.8 | 0.156 | -0.52 | -0.245
